Measured values reported in patent US20240269235A1 (Gilead, published 2024).

Columns and labels:
[1] = molecular target: T1, IL-2Rβ and IL-2Rγ on Ba/F3 cells engineered to express murine IL-2Rβ (murine, UniProt P16297 27-539; P34902 23-369); test: cell-based or functional assay
T1 sequence (looked up) 1: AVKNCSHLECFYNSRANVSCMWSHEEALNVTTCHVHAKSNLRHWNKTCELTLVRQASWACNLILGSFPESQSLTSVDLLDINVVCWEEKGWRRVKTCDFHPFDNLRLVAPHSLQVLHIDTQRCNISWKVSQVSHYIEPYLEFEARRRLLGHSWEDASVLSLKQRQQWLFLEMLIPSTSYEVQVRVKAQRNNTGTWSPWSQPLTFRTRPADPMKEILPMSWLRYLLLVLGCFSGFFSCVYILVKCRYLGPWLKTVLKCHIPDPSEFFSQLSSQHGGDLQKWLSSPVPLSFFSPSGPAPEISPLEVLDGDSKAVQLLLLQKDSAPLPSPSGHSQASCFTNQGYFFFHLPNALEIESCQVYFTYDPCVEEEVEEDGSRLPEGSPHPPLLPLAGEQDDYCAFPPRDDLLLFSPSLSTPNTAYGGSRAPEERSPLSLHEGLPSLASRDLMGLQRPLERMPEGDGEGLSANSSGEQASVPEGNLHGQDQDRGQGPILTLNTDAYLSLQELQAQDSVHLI
T1 sequence (looked up) 2: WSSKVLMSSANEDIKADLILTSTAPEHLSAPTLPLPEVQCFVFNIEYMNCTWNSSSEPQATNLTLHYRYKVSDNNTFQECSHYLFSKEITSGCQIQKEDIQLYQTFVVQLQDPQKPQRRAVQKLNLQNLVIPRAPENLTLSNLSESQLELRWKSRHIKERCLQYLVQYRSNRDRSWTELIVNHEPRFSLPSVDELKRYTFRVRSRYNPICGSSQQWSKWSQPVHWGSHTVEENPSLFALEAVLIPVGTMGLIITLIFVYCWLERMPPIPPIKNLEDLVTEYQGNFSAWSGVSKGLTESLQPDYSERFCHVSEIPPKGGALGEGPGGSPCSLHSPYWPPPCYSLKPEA

[2] = molecular target: T2, trimeric murine IL-2 receptor (IL-2Rα, IL-2Rβ, and IL-2Rγ) on CTLL-2 cells (murine, UniProt P01590 22-268; P16297 27-539; P34902 23-369); test: cell-based or functional assay
T2 sequence (looked up) 1: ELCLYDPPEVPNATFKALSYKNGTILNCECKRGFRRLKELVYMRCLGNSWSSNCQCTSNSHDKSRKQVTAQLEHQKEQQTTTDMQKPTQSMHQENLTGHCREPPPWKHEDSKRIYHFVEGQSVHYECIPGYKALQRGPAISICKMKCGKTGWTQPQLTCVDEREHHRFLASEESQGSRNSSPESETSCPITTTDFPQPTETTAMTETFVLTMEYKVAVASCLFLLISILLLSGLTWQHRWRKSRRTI
T2 sequence (looked up) 2: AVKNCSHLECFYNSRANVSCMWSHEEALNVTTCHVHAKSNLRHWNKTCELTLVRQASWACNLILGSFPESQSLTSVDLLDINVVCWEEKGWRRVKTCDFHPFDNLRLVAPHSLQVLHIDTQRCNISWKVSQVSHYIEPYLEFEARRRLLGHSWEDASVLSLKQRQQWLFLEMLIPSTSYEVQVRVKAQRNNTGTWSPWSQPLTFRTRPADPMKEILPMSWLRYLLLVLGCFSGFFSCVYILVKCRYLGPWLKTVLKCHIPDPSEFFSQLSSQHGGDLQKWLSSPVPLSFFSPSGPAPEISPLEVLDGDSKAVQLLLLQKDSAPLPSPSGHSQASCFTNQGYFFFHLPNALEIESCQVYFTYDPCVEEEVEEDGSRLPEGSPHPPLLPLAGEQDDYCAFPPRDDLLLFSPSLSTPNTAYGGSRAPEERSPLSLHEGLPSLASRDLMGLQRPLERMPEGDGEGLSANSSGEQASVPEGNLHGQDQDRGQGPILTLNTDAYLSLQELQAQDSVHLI
T2 sequence (looked up) 3: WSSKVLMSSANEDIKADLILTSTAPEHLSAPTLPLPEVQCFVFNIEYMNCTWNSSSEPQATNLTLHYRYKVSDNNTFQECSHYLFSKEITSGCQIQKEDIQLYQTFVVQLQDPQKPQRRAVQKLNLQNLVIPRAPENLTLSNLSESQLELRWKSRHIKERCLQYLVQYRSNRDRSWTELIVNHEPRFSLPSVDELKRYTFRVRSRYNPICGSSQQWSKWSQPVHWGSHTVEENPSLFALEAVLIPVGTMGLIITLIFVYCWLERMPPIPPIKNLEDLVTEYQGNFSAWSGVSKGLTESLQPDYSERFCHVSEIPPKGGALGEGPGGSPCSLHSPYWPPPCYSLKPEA

B1: mouse surrogate Fc-IL-2 heterodimer 165.250 (IL2v_C140A), native IL-2Rα binding interface (Fc fusion)
chain 1: GPTIKPCPPCKCPAPNAAGGPSVFIFPPKIKDVLMISLSPIVTCVVVDVSEDDPDVQISWFVNNVEVHTAQTQTHREDYNSTLRVVSALPIQHQDWMSGKEFKCKVNNKDLGAPIERTISKPKGSVRAPQVYVLPPPEEEMTKKQVTLWCMVTDFMPEDIYVEWTNNGKTELNYKNTEPVLDSDGSYFMYSKLRVEKKNWVERNSYSCSVVHEGLHNHHTTKSFSRTPGGGGGSGGGGSGGGGSGGGGSQQQHLEQLLMDLQELLSRMENYRNLKLPRMLTFKFYLPKQATELKDLQCLEDELGPLRHVLDLTQSKSFQLEDAENFISNIRVTVVKLKGSDNTFECQFDDESATVVDFLRRWIAFAQSIISTSPQ
chain 2: GPTIKPCPPCKCPAPNAAGGPSVFIFPPKIKDVLMISLSPIVTCVVVDVSEDDPDVQISWFVNNVEVHTAQTQTHREDYNSTLRVVSALPIQHQDWMSGKEFKCKVNNKDLGAPIERTISKPKGSVRAPQVYVLPPPEEEMTKKQVTLSCAVTDFMPEDIYVEWTNNGKTELNYKNTEPVLDSDGSYFMVSKLRVEKKNWVERNSYSCSVVHEGLHNHHTTKSFSRTPGK
Proliferation EC50, Ba/F3 cells [1]: 4.1 nM | pSTAT5 EC50, STAT5 activation of CTLL-2 cells [2]: 0.002 nM

B2: mouse surrogate Fc-IL-2v heterodimer 166.250 (IL2v_F56A_Y59A_L86G_C140A) (Fc fusion)
chain 1: GPTIKPCPPCKCPAPNAAGGPSVFIFPPKIKDVLMISLSPIVTCVVVDVSEDDPDVQISWFVNNVEVHTAQTQTHREDYNSTLRVVSALPIQHQDWMSGKEFKCKVNNKDLGAPIERTISKPKGSVRAPQVYVLPPPEEEMTKKQVTLWCMVTDFMPEDIYVEWTNNGKTELNYKNTEPVLDSDGSYFMYSKLRVEKKNWVERNSYSCSVVHEGLHNHHTTKSFSRTPGGGGGSGGGGSGGGGSGGGGSQQQHLEQLLMDLQELLSRMENYRNLKLPRMLTAKFALPKQATELKDLQCLEDELGPLRHVLDGTQSKSFQLEDAENFISNIRVTVVKLKGSDNTFECQFDDESATVVDFLRRWIAFAQSIISTSPQ
chain 2: GPTIKPCPPCKCPAPNAAGGPSVFIFPPKIKDVLMISLSPIVTCVVVDVSEDDPDVQISWFVNNVEVHTAQTQTHREDYNSTLRVVSALPIQHQDWMSGKEFKCKVNNKDLGAPIERTISKPKGSVRAPQVYVLPPPEEEMTKKQVTLSCAVTDFMPEDIYVEWTNNGKTELNYKNTEPVLDSDGSYFMVSKLRVEKKNWVERNSYSCSVVHEGLHNHHTTKSFSRTPGK
Proliferation EC50, Ba/F3 cells [1]: 9.5 nM | pSTAT5 EC50, STAT5 activation of CTLL-2 cells [2]: 5.4 nM

B3: mouse surrogate Fc-IL-2v heterodimer 167.250 (IL2v_F56A_C140A) (Fc fusion)
chain 1: GPTIKPCPPCKCPAPNAAGGPSVFIFPPKIKDVLMISLSPIVTCVVVDVSEDDPDVQISWFVNNVEVHTAQTQTHREDYNSTLRVVSALPIQHQDWMSGKEFKCKVNNKDLGAPIERTISKPKGSVRAPQVYVLPPPEEEMTKKQVTLWCMVTDFMPEDIYVEWTNNGKTELNYKNTEPVLDSDGSYFMYSKLRVEKKNWVERNSYSCSVVHEGLHNHHTTKSFSRTPGGGGGSGGGGSGGGGSGGGGSQQQHLEQLLMDLQELLSRMENYRNLKLPRMLTAKFYLPKQATELKDLQCLEDELGPLRHVLDLTQSKSFQLEDAENFISNIRVTVVKLKGSDNTFECQFDDESATVVDFLRRWIAFAQSIISTSPQ
chain 2: GPTIKPCPPCKCPAPNAAGGPSVFIFPPKIKDVLMISLSPIVTCVVVDVSEDDPDVQISWFVNNVEVHTAQTQTHREDYNSTLRVVSALPIQHQDWMSGKEFKCKVNNKDLGAPIERTISKPKGSVRAPQVYVLPPPEEEMTKKQVTLSCAVTDFMPEDIYVEWTNNGKTELNYKNTEPVLDSDGSYFMVSKLRVEKKNWVERNSYSCSVVHEGLHNHHTTKSFSRTPGK
Proliferation EC50, Ba/F3 cells [1]: 5.2 nM | pSTAT5 EC50, STAT5 activation of CTLL-2 cells [2]: 0.12 nM

B4: mouse surrogate Fc-IL-2v heterodimer 171.250 (IL2v_R52G_F56A_E76A_C140A) (Fc fusion)
chain 1: GPTIKPCPPCKCPAPNAAGGPSVFIFPPKIKDVLMISLSPIVTCVVVDVSEDDPDVQISWFVNNVEVHTAQTQTHREDYNSTLRVVSALPIQHQDWMSGKEFKCKVNNKDLGAPIERTISKPKGSVRAPQVYVLPPPEEEMTKKQVTLWCMVTDFMPEDIYVEWTNNGKTELNYKNTEPVLDSDGSYFMYSKLRVEKKNWVERNSYSCSVVHEGLHNHHTTKSFSRTPGGGGGSGGGGSGGGGSGGGGSQQQHLEQLLMDLQELLSRMENYRNLKLPGMLTAKFYLPKQATELKDLQCLEDALGPLRHVLDLTQSKSFQLEDAENFISNIRVTVVKLKGSDNTFECQFDDESATVVDFLRRWIAFAQSIISTSPQ
chain 2: GPTIKPCPPCKCPAPNAAGGPSVFIFPPKIKDVLMISLSPIVTCVVVDVSEDDPDVQISWFVNNVEVHTAQTQTHREDYNSTLRVVSALPIQHQDWMSGKEFKCKVNNKDLGAPIERTISKPKGSVRAPQVYVLPPPEEEMTKKQVTLSCAVTDFMPEDIYVEWTNNGKTELNYKNTEPVLDSDGSYFMVSKLRVEKKNWVERNSYSCSVVHEGLHNHHTTKSFSRTPGK
Proliferation EC50, Ba/F3 cells [1]: 13 nM | pSTAT5 EC50, STAT5 activation of CTLL-2 cells [2]: 88.7 nM

B5: mouse surrogate Fc-IL-2v heterodimer 168.250 (IL2v_F56A_E76A_C140A) (Fc fusion)
chain 1: GPTIKPCPPCKCPAPNAAGGPSVFIFPPKIKDVLMISLSPIVTCVVVDVSEDDPDVQISWFVNNVEVHTAQTQTHREDYNSTLRVVSALPIQHQDWMSGKEFKCKVNNKDLGAPIERTISKPKGSVRAPQVYVLPPPEEEMTKKQVTLWCMVTDFMPEDIYVEWTNNGKTELNYKNTEPVLDSDGSYFMYSKLRVEKKNWVERNSYSCSVVHEGLHNHHTTKSFSRTPGGGGGSGGGGSGGGGSGGGGSQQQHLEQLLMDLQELLSRMENYRNLKLPRMLTAKFYLPKQATELKDLQCLEDALGPLRHVLDLTQSKSFQLEDAENFISNIRVTVVKLKGSDNTFECQFDDESATVVDFLRRWIAFAQSIISTSPQ
chain 2: GPTIKPCPPCKCPAPNAAGGPSVFIFPPKIKDVLMISLSPIVTCVVVDVSEDDPDVQISWFVNNVEVHTAQTQTHREDYNSTLRVVSALPIQHQDWMSGKEFKCKVNNKDLGAPIERTISKPKGSVRAPQVYVLPPPEEEMTKKQVTLSCAVTDFMPEDIYVEWTNNGKTELNYKNTEPVLDSDGSYFMVSKLRVEKKNWVERNSYSCSVVHEGLHNHHTTKSFSRTPGK
Proliferation EC50, Ba/F3 cells [1]: 20.6 nM | pSTAT5 EC50, STAT5 activation of CTLL-2 cells [2]: 63.1 nM
